Results on 36 sequences are retold here after the supplement of paper PMC10567573.

This series in a line: protein stability index of a GFP-peptide fusion (GPS, HEK-293T) (PSI 1-6); higher = more stable. The conditions noted are these: c terminus: a fixed tail appended.

± gives the standard deviation.
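Note: 24-mer peptide tiles fused after GFP, lentivirally expressed, FACS-sorted into six equal bins by GFP/DsRed ratio, decoded by Illumina sequencing, PSI is the read-weighted mean bin number.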

Consider PIPVVFVLRHFHLLSDGSNTLSVS [SLC6A17], for which the protein stability index is, setting by setting: (treatment: DMSO) 2.83 ± 0.81; (treatment: MLN4924 1 uM, 8 h) 2.84 ± 0.47.
For PKRMPSGRGGRDRFTAESYTVLGD [FSD1] the same measures were 4.11 ± 0.33 and 4.3 ± 0.22.
For the sequence PLCMLLLIDHLALRARNYEYLIRL [TCF25], the protein stability index (treatment: DMSO) amounted to 3.43 ± 1.1 and the protein stability index (treatment: MLN4924 1 uM, 8 h) turned out to be 2.92 ± 0.55.
Take PLHLAAQRGHYRVARILIDLCSDV [RIPK4]: the protein stability index (treatment: DMSO) is 2.42 ± 0.44 and the protein stability index (treatment: MLN4924 1 uM, 8 h) stood at 2.31 ± 0.19.
Regarding PLHLSALRDDVLCARMLYNYGADT [ASB7], the protein stability index runs as follows: (treatment: DMSO) 2.27 ± 0.15; (treatment: MLN4924 1 uM, 8 h) 2.48 ± 0.38.
In the same order, the values of PLHVHEEEGILVAVGQDCYTRIWS [DCAF4] are 2.67 ± 0.3 and 2.74 ± 0.43.
With PLQLLREMRQALQALLKENRLLQE [CBY2], the protein stability index is, setting by setting: (treatment: DMSO) 2.93 ± 0.28; (treatment: MLN4924 1 uM, 8 h) 3.4 ± 0.51.
Regarding PLSPIQASSVHLKSESSLPHQTSK, the protein stability index runs as follows: (treatment: DMSO) 5.02 ± 0.19; (treatment: MLN4924 1 uM, 8 h) 5.05 ± 0.088.
In the same order, the values of PLTGFLTTVPDGPTQLRALNLTEG [TNXB] are 3.81 ± 0.26 and 3.55 ± 0.22.
As for PPAELKAEPGFEPADCKRKEEAGA [CEBPB], the protein stability index runs as follows: (treatment: DMSO) 5.55 ± 0.23; (treatment: MLN4924 1 uM, 8 h) 5.68 ± 0.13.
For PPDRTLGCWATDAAPAAGLCGAGS [RSPH3] the same measures were 3.79 ± 0.15 and 3.71 ± 0.32.
For PPETTETPKCSSPRGQEGSRQDKP [YJU2B] the same measures were 5.5 ± 0.36 and 5.54 ± 0.26.
Take PPLPLHPGGDQGGPPVGPLSLGLA [WAS]: the protein stability index was 4.26 ± 0.25 (treatment: DMSO) and 4.45 ± 0.15 (treatment: MLN4924 1 uM, 8 h).
Regarding PPMTQAQAVSAPGILNRPPAPTAT [ZNF207], the protein stability index (treatment: DMSO) came to 5.01 ± 0.18 and the protein stability index (treatment: MLN4924 1 uM, 8 h) worked out at 5.09 ± 0.21.
For PPPARGRGAPPPPPSRAPTAAPPP [WASL] the same measures were 5.26 ± 0.11 and 5.14 ± 0.21.
The sequence PPPGSLSRTQEPSLGKQKVFIIRK [SOAT2] displayed a protein stability index (treatment: DMSO) of 3.51 ± 0.17 and a protein stability index (treatment: MLN4924 1 uM, 8 h) of 3.73 ± 0.17.
In the same order, the values of PPTSGCLGPVPREDQAEAWGCSCC [TSPAN10] are 4.8 ± 0.3 and 4.74 ± 0.24.
For PQDYKKRLSVELTSSLFRTEPMAW [CTNNB1] the same measures were 2.67 ± 0.24 and 2.8 ± 0.21.
Turning to PQFLHEGLSKPVYVINWFMSFGPE [FAM104B], the protein stability index stood at 2.68 ± 0.71 (treatment: DMSO) and 2.97 ± 1.2 (treatment: MLN4924 1 uM, 8 h).
PQGPPASPSCPEEALAATWEQPWA [PXN]: the protein stability index (treatment: DMSO) was found to be 4.15 ± 0.39 and the protein stability index (treatment: MLN4924 1 uM, 8 h) amounted to 3.96 ± 0.27.
For PQPPDAPQLVSSAREGSSEPWLPL [PLEKHN1] the same measures were 4.36 ± 0.25 and 4.56 ± 0.1.
For PQQPVMFAQPMMRPPFGAAAVPGT [SNAP91] the same measures were 3.75 ± 0.16 and 3.76 ± 0.3.
In the same order, the values of PQTPEPVEGRKHVDVQTELYLEEI [RSPH3] are 3.78 ± 0.24 and 4 ± 0.58.
As for PREDGASVNDQCGFGVLRLDADAA [TSPAN10], the protein stability index (treatment: DMSO) turned out to be 4.38 ± 0.31 and the protein stability index (treatment: MLN4924 1 uM, 8 h) amounted to 4.15 ± 0.17.
For PRLQQLLKTLEEGLEGLEDAPPVE [FANCE] the same measures were 4.41 ± 0.16 and 4.34 ± 0.3.
In the same order, the values of PRNADKIRVKIADLGNACWVHKHF [SRPK2] are 2.26 ± 0.12 and 2.42 ± 1.3.
For PRPGTGQSRSFRILAHLTGTEFMQ [PDLIM7] the same measures were 2.47 ± 0.046 and 2.83 ± 0.27.
Regarding PSALVPSVTEYRLDGHTISDLSRS [MYBL2], the protein stability index runs as follows: (treatment: DMSO) 4.25 ± 0.2; (treatment: MLN4924 1 uM, 8 h) 4.25 ± 0.39.
In turn, PSCLACNRQCLCSAESMVEYGTCM [SPRY1] yielded a protein stability index (treatment: DMSO) of 2.84 ± 0.58 and a protein stability index (treatment: MLN4924 1 uM, 8 h) of 2.84 ± 0.48.
Turning to PSEICDRLVNEYVELVNAACNFEP [ZER1], the protein stability index (treatment: DMSO) stood at 3.15 ± 0.3 and the protein stability index (treatment: MLN4924 1 uM, 8 h) stood at 3.17 ± 0.23.
For PTPVGAVQQDPALSSNREAHQHRD [CSNK1G3], the protein stability index stood at 5.37 ± 0.21 (treatment: DMSO) and 5.41 ± 0.19 (treatment: MLN4924 1 uM, 8 h).
For PVIPAAALAGYTGSGPIQLWQFLL [ETS1] the same measures were 2.68 ± 0.26 and 2.68 ± 0.28.
Regarding PVLGRRAVGGRLRLVPGGQRPADV [HAGHL], the protein stability index came to 3.64 ± 0.17 (treatment: DMSO) and 3.88 ± 0.36 (treatment: MLN4924 1 uM, 8 h).
For PVMDVWARKQDMNTKRAIHTLAVM [KLHL14], the protein stability index turned out to be 2.34 ± 0.1 (treatment: DMSO) and 2.33 ± 0.17 (treatment: MLN4924 1 uM, 8 h).
In the same order, the values of PVTCCDVSSNNRLVVTGSGEHASV [TLE6] are 4.19 ± 0.22 and 4.37 ± 0.16.
In the same order, the values of QAGDKDLDGQLDFEEFVHYLQDHE [SLC25A25] are 5.19 ± 0.23 and 4.96 ± 0.23.
